Results as given in US20140072613A1 (published 2014).

T1: Bmx(h) (human, UniProt P51813 1-675, limits assumed)
T1 sequence (looked up): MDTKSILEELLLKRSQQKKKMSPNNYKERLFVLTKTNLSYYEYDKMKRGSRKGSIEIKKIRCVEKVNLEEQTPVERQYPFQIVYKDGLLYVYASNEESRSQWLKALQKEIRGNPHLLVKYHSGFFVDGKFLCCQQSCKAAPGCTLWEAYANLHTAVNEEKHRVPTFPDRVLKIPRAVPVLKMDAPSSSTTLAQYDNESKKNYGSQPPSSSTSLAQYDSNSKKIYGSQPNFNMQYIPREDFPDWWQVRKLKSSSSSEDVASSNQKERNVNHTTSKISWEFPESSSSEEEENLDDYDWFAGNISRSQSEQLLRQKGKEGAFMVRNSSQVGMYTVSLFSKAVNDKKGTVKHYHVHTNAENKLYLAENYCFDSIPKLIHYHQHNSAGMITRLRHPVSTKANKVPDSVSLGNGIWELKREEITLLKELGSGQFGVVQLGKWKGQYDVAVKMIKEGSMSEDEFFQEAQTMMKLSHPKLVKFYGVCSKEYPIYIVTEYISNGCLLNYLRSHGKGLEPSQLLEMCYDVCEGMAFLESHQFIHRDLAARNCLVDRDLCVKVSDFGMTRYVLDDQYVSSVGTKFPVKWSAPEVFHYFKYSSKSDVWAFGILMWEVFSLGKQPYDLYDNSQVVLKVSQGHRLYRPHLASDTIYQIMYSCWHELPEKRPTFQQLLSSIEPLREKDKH


Legend:
Experiment in all cases: cell-based or functional assay
[1] = biological target: JAK2(h) (human, UniProt O60674 808-1132, limits assumed)
[2] = biological target: PAK5(h) (human, UniProt Q9P286 1-719, limits assumed)
[3] = biological target: GRK5(h) (human, UniProt P34947 1-590)
[4] = biological target: JAK3(h) (human, UniProt P52333 781-1124, limits assumed)
[5] = biological target: PKA(h) (human, UniProt P17612 1-351)
[6] = biological target: Plk1(h) (human, UniProt P53350 1-603)
[7] = biological target: T1, Bmx(h)
[8] = biological target: TLK2(h) (human, UniProt Q86UE8 1-772, limits assumed)
[9] = biological target: CK2α2(h) (human, UniProt P19784 1-350)
[10] = biological target: cKit(V560G)(h) (human, UniProt P10721 544-976)
Chain of cKit(V560G)(h) (P10721 544-976 V560G): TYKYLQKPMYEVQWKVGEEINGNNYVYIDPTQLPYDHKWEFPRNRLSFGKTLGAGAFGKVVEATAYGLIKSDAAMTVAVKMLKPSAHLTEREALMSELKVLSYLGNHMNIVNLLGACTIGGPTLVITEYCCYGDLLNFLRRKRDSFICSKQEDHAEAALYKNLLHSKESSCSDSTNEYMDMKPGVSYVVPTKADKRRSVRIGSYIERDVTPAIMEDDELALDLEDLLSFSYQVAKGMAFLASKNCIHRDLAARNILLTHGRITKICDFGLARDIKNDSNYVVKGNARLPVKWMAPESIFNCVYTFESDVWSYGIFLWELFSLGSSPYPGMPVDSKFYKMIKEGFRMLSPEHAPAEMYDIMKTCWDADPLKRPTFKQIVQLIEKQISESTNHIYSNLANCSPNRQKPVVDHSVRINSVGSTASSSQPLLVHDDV

Chain of PAK5(h) (Q9P286 whole entry): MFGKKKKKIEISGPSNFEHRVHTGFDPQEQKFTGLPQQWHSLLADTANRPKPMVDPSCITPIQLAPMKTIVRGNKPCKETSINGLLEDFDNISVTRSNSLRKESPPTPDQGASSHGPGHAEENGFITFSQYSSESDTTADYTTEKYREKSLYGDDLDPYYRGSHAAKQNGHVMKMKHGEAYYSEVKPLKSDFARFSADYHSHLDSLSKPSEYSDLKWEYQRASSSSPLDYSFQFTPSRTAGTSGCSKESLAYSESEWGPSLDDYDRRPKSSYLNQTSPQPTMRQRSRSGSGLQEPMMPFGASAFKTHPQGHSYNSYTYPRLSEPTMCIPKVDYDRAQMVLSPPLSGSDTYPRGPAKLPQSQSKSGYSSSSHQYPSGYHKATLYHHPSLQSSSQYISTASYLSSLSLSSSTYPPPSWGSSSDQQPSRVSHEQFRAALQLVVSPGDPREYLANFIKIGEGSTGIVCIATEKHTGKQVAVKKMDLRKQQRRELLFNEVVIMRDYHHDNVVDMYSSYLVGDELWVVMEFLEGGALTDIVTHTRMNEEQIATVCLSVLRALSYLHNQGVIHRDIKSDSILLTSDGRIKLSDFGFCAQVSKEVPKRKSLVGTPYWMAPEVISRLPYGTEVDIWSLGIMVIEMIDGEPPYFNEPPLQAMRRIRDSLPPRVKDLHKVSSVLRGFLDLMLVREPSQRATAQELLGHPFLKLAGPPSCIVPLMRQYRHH
Chain of GRK5(h) (P34947 whole entry): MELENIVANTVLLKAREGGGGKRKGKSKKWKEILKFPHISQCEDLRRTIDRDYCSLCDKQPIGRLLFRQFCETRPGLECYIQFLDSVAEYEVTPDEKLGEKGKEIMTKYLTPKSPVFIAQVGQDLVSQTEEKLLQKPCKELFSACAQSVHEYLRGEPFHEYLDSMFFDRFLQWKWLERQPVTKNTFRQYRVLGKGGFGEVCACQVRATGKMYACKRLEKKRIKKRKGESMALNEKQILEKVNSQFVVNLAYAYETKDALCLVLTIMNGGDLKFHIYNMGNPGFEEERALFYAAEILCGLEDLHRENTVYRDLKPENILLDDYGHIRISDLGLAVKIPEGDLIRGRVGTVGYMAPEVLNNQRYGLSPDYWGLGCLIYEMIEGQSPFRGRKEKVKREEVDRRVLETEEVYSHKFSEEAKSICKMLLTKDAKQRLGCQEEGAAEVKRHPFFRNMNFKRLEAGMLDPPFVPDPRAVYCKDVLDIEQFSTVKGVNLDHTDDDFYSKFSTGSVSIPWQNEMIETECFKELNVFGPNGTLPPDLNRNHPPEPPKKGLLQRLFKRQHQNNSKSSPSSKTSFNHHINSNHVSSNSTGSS
Chain of CK2α2(h) (P19784 whole entry): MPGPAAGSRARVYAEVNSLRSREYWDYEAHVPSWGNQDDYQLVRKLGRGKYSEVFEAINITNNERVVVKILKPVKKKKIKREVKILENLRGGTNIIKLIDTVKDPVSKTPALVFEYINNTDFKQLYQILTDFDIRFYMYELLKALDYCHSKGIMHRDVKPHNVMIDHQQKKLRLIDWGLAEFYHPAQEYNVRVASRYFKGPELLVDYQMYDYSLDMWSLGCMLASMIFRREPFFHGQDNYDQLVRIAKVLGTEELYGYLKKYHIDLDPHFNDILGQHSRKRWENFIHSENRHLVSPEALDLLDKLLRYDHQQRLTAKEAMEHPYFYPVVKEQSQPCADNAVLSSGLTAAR
Chain of Plk1(h) (P53350 whole entry): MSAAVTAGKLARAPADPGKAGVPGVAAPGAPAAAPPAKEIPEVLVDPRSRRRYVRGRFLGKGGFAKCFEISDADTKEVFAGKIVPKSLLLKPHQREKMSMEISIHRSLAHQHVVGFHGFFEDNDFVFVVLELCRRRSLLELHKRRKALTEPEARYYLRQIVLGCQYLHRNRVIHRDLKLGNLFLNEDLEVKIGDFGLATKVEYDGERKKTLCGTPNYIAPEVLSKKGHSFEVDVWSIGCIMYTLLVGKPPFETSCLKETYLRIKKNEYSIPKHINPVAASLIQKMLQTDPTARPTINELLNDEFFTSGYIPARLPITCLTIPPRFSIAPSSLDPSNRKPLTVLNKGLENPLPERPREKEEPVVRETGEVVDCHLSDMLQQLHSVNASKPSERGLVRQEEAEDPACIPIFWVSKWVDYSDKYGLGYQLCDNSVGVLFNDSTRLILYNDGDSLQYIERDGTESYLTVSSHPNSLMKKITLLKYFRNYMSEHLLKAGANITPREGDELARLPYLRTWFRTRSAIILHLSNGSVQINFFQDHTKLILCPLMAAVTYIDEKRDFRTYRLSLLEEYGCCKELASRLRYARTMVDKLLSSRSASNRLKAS
Chain of TLK2(h) (Q86UE8 whole entry): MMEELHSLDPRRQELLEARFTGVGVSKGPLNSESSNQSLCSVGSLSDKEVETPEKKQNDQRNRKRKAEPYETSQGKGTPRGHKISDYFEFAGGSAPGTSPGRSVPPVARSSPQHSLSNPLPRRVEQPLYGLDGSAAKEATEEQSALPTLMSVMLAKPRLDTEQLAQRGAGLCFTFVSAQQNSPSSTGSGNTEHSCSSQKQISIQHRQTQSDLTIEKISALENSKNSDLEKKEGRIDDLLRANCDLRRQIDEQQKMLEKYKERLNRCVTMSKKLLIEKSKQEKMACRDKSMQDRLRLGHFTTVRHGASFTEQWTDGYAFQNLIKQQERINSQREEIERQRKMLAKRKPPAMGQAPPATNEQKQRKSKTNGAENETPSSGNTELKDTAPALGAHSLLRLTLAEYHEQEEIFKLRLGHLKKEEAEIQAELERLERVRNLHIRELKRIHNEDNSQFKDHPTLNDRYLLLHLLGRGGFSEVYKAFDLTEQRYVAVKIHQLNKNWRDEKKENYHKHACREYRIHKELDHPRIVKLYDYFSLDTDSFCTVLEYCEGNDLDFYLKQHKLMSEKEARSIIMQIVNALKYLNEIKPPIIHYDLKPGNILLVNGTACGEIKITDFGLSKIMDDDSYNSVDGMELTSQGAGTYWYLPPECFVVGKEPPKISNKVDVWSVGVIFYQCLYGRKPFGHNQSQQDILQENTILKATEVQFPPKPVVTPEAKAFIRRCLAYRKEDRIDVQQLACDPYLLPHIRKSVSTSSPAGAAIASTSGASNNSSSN
Chain of JAK2(h) (O60674 808-1132 limits assumed): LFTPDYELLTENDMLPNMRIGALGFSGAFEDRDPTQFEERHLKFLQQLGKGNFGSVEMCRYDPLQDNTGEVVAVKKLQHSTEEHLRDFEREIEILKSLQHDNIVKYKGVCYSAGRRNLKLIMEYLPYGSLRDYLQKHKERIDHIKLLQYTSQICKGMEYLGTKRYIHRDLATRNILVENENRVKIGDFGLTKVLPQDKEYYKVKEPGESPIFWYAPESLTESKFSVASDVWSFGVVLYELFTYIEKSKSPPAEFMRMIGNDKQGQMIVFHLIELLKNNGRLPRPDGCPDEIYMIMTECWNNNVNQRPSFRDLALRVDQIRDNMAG
Chain of JAK3(h) (P52333 781-1124 limits assumed): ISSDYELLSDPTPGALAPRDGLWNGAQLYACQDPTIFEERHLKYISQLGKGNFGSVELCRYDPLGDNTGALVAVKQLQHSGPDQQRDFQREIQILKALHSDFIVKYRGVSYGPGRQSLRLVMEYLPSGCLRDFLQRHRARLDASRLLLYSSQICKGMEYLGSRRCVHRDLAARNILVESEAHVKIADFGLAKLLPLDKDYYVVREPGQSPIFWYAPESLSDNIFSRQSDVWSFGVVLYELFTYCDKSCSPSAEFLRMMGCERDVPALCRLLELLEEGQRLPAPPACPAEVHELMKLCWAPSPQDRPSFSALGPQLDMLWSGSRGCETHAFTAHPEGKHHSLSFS

Binder	% activity, 100 µM [1]	% activity, 100 µM [2]	% activity, 100 µM [3]	% activity, 100 µM [4]	% activity, 100 µM [5]	% activity, 100 µM [6]	% activity, 100 µM [7]	% activity, 100 µM [8]	% activity, 100 µM [9]	% activity, 100 µM [10]
FAKLAARLYRKALARQLGVAA [MMI-0300]	133%	110%	–	–	–	–	–	–	–	–
KAFAKLAARLYRKALARQLGVAA [MMI-0400]	–	–	131%	122%	119%	119%	26%	151%	96%	124%
